From patent US20230087385A1, “Use of SAA, rSAA or inhibitors of SAA in the treatment of dysregulated inflammation” (LIKA ANTISEPSIS GBR, priority 2020, published 2023)

Experiments:
[1] = system: neutrophils; experiment: Anti-inflammatory potential of SAA on neutrophils (oxidative burst, migration, myeloperoxidase release, O2-release); assay type: cell-based
Description: The anti-inflammatory potential of SAA on neutrophils has been confirmed for SAA at reported serum concentrations. […] However, at higher concentrations of more than 50 μg/ml, SAA was stimulating. In addition, O2-release was inhibited up to 0.1 μg/ml, but the O2-release was increased above that. Thus, SAA plays a dual role, it down-regulates inflammatory processes in lower concentration but, during the full APR, the action of SAA can be promoting.

[2] = Immunodiffusion of SAA-HDL containing acute phase serum with polyclonal anti-AA at different temperatures; assay type: physicochemical; conditions: added to normal human serum
Description: Immunodiffusion (ID) at different temperatures. The ID was performed in 1.5% Seakem Agarose in 0.03 M barbital buffer, pH 8.6 with the same reagents in each of the three plates a 6 wells (A-C). Top and bottom well contained AA (0.1 mg/ml), the middle well contained polyclonal rabbit anti-AA antibodies undiluted and the 4 side wells contained elevated SAA-HDL containing APS from 4 patients at 1/10 diluted. Plate A after diffusion over night at room temperature, plate B at 4° C. over night and plate C first at 4° over night as plate B at 4° C. followed by room temperature for 6 hs similar to plate A.
In FIG. 1A, one recognizes a line of identity of AA with all four patients' sera as if the SAA (probably SAA1 and SAA2) reaction were done with pure SAA. At 4° C. in FIG. 1B, however, there is no reaction with SAA-HDL in serum. This is due to the hiding of the AA-reactive parts of SAA through HDL. […] Therefore, the separation of SAA from HDL is temperature-dependent.

[3] = system: human neutrophils; experiment: Binding of SAA to human neutrophils
Source text: (§1) This was the first time that a function of SAA was blocked by a monoclonal AA antibody. The monoclonal antibody mc29 used probably also blocks the laminin-like domain (aa 29-33) and may also be participating partially with the RGD-like domain (aa 39-41). In addition, human neutrophils were exposed to full human APS at different temperatures. […] This indicated an irreversible structural change of SAA (or its fragments) during high fever, which is blocking SAA's return to the reversible binding to HDL. (This febrile temperature-that induced the aggregation of AA-antigenic proteins has also been noticed in vitro and documented in FIG. 2 at 38° C. and 40° C.). The possibly unfavorable consequences of these aggregates in humans or animals are unknown today.

[4] = system: human neutrophils; experiment: FMLP-induced oxidative burst of normal human neutrophils; assay type: cell-based; conditions: SAA at 0.1 μg/ml and 1.0 μg/ml
Source text: as §1

[5] = SAA at reported serum concentrations

83-104: SAA peptide aa 83-104 (NEWGRSGKDPNHFRPAGLPEKY; UniProt P0DJI8 101-122, looked up, fragment)
contribution of SAA peptides to the inhibitory effect on neutrophils [1]: contributed to this inhibitory effect

aa 1-14: SAA peptide aa 1-14 (RSFFSFLGEAFDGA; UniProt P0DJI8 19-32, looked up, fragment)
contribution of SAA peptides to the inhibitory effect on neutrophils [1]: contributed to this inhibitory effect

B1: recombinant SAA2: recombinant serum amyloid A2 protein (SEQ ID NO: 2: human SAA2) (protein, UniProt P0DJI9 19-122, looked up)
Serum amyloid A-2 protein: RSFFSFLGEAFDGARDMWRAYSDMREANYIGSDKYFHARGNYDAAKRGPGGAWAAEVISNARENIQRLTGRGAEDSLADQAANKWGRSGRDPNHFRPAGLPEKY
temperature-dependent immunodiffusion behavior as in FIG. 1 [2]: repeat exactly that behavior
binding with human neutrophils [3]: Strong binding

B2: SAA: serum amyloid A protein, 12.5 kDa acute phase protein isolated from human serum (protein)
chain: RSFFSFLGEAFDGARDMWRAYSDMREANYIGSDKYFHARGNYDAAKRGPGGAWAAEVITDARENIQRFFGHGAEDS
FMLP-induced oxidative burst of normal human neutrophils [4]: reduced, concentration-dependently
migration of neutrophils [1, 5]: inhibited
neutrophil myeloperoxidase release [1, 5]: inhibited
oxidative burst of neutrophils [1, 5]: inhibited
O2-release ([1]; above 0.1 μg/ml): increased
effect on neutrophils at higher concentrations ([1]; more than 50 μg/ml): stimulating
O2-release ([1]; up to 0.1 μg/ml): inhibited
binding with human neutrophils [3]: Strong binding
